Data from PMC10037368 (2023).

Molecular target: Spike glycoprotein (Wuhan-Hu-1) RBD (Severe acute respiratory syndrome …, UniProt P0DTC2)
Assay: ELISA

B1: Sb92 sherpabody (designed binder)
chain: EEYIAVGDFFSTDPADLTFKKGEILLVIERGTSAGDGWWIAKDAKGNEGLVPRTYLEPYS
Q: How did the Kd turn out when B1 was run?
A: 30 nM
